In patent US20010004522A1, “KINASE ACTIVITY MEASUREMENT USING FLUORESCENCE POLARIZATION” (priority 1997, published 2001):

Columns and labels:
EGF receptor = EGF receptor (Homo sapiens, UniProt P00533); settings: 50 mM EDTA, ~12.5 nM EGF receptor, 30° C., polarization read every 10 seconds
[1] = target: T1, T-cell protein tyrosine phosphatase (Homo sapiens, UniProt P17706); assay: Phosphatase activity by fluorescence polarization; assay type: biochemical; settings: 1.0 mM Na3VO4, 0.5 U T-cell protein tyrosine phosphatase, 30° C.
T1 construct: purchased New England Biolabs
T1 sequence (P17706 1-317 limits assumed): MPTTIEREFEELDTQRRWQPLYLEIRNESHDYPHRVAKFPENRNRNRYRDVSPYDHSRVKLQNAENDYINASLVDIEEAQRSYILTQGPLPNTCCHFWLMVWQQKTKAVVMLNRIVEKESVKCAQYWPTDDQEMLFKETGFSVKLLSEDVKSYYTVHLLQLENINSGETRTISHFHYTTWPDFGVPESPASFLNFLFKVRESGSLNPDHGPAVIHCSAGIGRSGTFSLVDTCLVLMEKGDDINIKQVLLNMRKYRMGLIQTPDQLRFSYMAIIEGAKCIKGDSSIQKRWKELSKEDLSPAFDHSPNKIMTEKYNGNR
Procedure: Fluorescence polarization can also be used to measure phosphatase activity.
Phosphatase enzyme was added to a high polarization mixture and as it removed the phosphate from the peptide, the antibody was released, and the polarization value went down, shown in FIG. 13. Two control experiments were performed. […] This assay was performed with all of the reaction and detection components present in a test tube. However, this reaction could also be done as an endpoint assay with aliquots of the reaction taken at incremental time points, or with different reactions started at the same time but terminated at incremental time points.

GFAP peptide = assay: Radioactive (32P) kinase assay of PKC isozymes on GFAP peptide; assay type: biochemical; settings: GFAP peptide 100 μg/ml, 10 μM ATP, 100 μM CaCl2, no EGTA
[2] = target: T2, PKC Epsilon (ε) substrate peptide (Homo sapiens, UniProt Q02156); assay: PKC activity assay, phospholipid dependence; assay type: biochemical
T2 construct: made in house
T2 sequence (Q02156 1-737): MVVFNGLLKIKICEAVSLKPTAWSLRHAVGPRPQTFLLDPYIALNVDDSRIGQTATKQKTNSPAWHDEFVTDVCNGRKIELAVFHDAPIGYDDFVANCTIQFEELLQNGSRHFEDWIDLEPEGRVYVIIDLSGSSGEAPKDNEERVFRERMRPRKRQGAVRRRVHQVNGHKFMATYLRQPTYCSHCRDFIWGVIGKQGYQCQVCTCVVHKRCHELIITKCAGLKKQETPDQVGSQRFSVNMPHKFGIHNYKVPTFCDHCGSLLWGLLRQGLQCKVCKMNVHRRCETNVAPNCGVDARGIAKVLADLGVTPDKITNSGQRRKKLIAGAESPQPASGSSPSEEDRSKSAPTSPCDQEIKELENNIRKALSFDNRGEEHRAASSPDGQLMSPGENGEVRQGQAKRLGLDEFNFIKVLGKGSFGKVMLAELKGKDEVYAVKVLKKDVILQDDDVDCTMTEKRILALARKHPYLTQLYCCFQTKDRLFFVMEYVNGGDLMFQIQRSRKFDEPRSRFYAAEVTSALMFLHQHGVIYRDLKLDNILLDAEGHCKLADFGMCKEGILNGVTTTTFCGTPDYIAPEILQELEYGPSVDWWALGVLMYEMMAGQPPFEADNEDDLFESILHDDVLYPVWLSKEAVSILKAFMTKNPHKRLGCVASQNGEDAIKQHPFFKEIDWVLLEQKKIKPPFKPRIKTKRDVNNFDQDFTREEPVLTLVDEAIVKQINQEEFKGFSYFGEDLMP
Excerpt: The purpose of this protocol is to provide the reader with the conditions that we use to determine the activity and phospholipid dependence of Protein Kinase C ε. This protein is purified to near homogeneity and may behave differently from crude preparations. The calculated molecular weight of the protein is 83.5 kDa. Apparent molecular weights of 89-96 kDa have been reported in the literature, and the protein may run as a doublet (1). […] With the assay described in this protocol, we typically see a two-fold phosphatidylserine stimulation of activity. There are many factors that can affect the phospholipid dependence of this enzyme and it will display different degrees of dependency for different substrates. The quality of the lipids used is very important and can affect the lipid dependency dramatically. The reaction conditions given in this protocol and the enzyme concentration ranges used give linear reaction kinetics over at least ten minutes.
[…] of Phosphatidylserine (1.2 μl of 10 mg/ml PS Stock) and […] of diacylglycerol (0.6 μl of 2 mg/ml DAG Stock) are needed per reaction. Determine the total amount of each needed for the number of reactions one is running and make up 10% more lipid mix than required to account for pipetting loss.
Using a Hamilton syringe (remember to clean out with methanol), transfer the required volume of each lipid stock to a 12×75 mm glass test tube. Thoroughly dry down the chloroform with a nitrogen stream and gentle rotation of the tube. Resuspend the dried mixture with 10 μl buffer per reaction. Resuspension buffer is 10 mM HEPES, pH 7.4/0.3% Triton X-100. Vortex into solution/suspension. This will take at least two minutes of vortexing. Place the lipid mix in a 40° C. water bath for 5 minutes prior to adding to the reaction mix.
1). Make up the reaction mix. All assays should be done in triplicate. Two blanks (reaction mix with no enzyme added) should be included and one tube for determining the total cpm's in a reaction.
2). Dispense 60 μl of mix into each tube and place tubes at 30° C.
3). Dilute the protein to be assayed to between 20 and 50 ng/μl.
4). Add 2 μl of diluted enzyme to each tube at 20 second intervals. Blanks have no enzyme added.
5). Stop reactions at 10 minutes by adding 6 μl 5% phosphoric acid.
6). Incubate on ice for 5 minutes.
7). Spot 5 μl of reaction mix on to two phosphocellulose membranes. These are the “Totals”.
8). Transfer 55 μl from each tube to phosphocellulose membranes. Allow to dry. Wash the membranes three times with 5 ml 0.5% phosphoric acid per filter in a 400 ml beaker.
9). Transfer membranes to scintillation vials and count (drying is not necessary). […]

Chain of EGF receptor (P00533 25-1210): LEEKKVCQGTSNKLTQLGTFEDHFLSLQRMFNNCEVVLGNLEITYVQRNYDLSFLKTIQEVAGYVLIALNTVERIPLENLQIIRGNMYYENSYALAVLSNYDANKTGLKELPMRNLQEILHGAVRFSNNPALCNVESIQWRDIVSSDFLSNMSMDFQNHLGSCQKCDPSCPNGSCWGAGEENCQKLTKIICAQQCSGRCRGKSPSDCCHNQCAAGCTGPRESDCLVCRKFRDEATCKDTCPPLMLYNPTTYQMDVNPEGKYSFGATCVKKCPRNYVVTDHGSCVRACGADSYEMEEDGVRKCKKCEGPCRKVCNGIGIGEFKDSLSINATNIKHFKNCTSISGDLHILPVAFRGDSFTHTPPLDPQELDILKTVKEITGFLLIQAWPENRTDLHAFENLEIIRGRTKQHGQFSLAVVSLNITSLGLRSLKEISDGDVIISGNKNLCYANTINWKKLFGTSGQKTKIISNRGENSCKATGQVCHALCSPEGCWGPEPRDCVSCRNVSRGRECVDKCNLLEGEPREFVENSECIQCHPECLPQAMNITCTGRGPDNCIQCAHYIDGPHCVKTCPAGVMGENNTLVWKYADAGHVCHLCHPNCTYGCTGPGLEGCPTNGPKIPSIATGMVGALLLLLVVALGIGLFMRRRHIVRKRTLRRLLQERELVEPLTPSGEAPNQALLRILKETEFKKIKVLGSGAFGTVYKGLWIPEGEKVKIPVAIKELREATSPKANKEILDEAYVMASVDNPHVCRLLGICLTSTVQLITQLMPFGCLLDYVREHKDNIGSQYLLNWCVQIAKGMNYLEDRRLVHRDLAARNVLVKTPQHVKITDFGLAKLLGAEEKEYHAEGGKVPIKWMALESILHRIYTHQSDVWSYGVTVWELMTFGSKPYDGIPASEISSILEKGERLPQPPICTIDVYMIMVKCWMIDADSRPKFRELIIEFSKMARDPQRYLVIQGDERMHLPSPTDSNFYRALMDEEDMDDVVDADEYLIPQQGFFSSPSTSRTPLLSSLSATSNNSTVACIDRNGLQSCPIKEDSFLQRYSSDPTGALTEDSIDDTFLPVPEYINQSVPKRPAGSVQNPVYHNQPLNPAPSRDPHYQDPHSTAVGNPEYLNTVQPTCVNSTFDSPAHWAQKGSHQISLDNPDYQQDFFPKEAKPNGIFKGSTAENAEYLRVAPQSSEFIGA

Molecule: O=C(O)CN(CCN(CC(=O)O)CC(=O)O)CC(=O)O [EDTA]
- EGF receptor kinase activity (EGF receptor): inhibits

Molecule: [Na+].[Na+].[Na+].[O]=[V]([O-])([O-])[O-] [vanadate, Na3VO4]
- polarization value (phosphatase activity) [1]: remained constant

B1: PKC epsilon: PKC isozyme tested for phosphorylation of GFAP peptide (protein, UniProt Q02156 1-737, looked up)
Protein kinase C epsilon type: MVVFNGLLKIKICEAVSLKPTAWSLRHAVGPRPQTFLLDPYIALNVDDSRIGQTATKQKTNSPAWHDEFVTDVCNGRKIELAVFHDAPIGYDDFVANCTIQFEELLQNGSRHFEDWIDLEPEGRVYVIIDLSGSSGEAPKDNEERVFRERMRPRKRQGAVRRRVHQVNGHKFMATYLRQPTYCSHCRDFIWGVIGKQGYQCQVCTCVVHKRCHELIITKCAGLKKQETPDQVGSQRFSVNMPHKFGIHNYKVPTFCDHCGSLLWGLLRQGLQCKVCKMNVHRRCETNVAPNCGVDARGIAKVLADLGVTPDKITNSGQRRKKLIAGAESPQPASGSSPSEEDRSKSAPTSPCDQEIKELENNIRKALSFDNRGEEHRAASSPDGQLMSPGENGEVRQGQAKRLGLDEFNFIKVLGKGSFGKVMLAELKGKDEVYAVKVLKKDVILQDDDVDCTMTEKRILALARKHPYLTQLYCCFQTKDRLFFVMEYVNGGDLMFQIQRSRKFDEPRSRFYAAEVTSALMFLHQHGVIYRDLKLDNILLDAEGHCKLADFGMCKEGILNGVTTTTFCGTPDYIAPEILQELEYGPSVDWWALGVLMYEMMAGQPPFEADNEDDLFESILHDDVLYPVWLSKEAVSILKAFMTKNPHKRLGCVASQNGEDAIKQHPFFKEIDWVLLEQKKIKPPFKPRIKTKRDVNNFDQDFTREEPVLTLVDEAIVKQINQEEFKGFSYFGEDLMP
- substrate phosphorylated (radioactive data for FIG. 6) (GFAP peptide): 1.47%

B2: PKC ε lot #6747: Protein Kinase C ε purified to near homogeneity, current lot of the enzyme (protein, UniProt Q02156 1-737, looked up)
Protein kinase C epsilon type: MVVFNGLLKIKICEAVSLKPTAWSLRHAVGPRPQTFLLDPYIALNVDDSRIGQTATKQKTNSPAWHDEFVTDVCNGRKIELAVFHDAPIGYDDFVANCTIQFEELLQNGSRHFEDWIDLEPEGRVYVIIDLSGSSGEAPKDNEERVFRERMRPRKRQGAVRRRVHQVNGHKFMATYLRQPTYCSHCRDFIWGVIGKQGYQCQVCTCVVHKRCHELIITKCAGLKKQETPDQVGSQRFSVNMPHKFGIHNYKVPTFCDHCGSLLWGLLRQGLQCKVCKMNVHRRCETNVAPNCGVDARGIAKVLADLGVTPDKITNSGQRRKKLIAGAESPQPASGSSPSEEDRSKSAPTSPCDQEIKELENNIRKALSFDNRGEEHRAASSPDGQLMSPGENGEVRQGQAKRLGLDEFNFIKVLGKGSFGKVMLAELKGKDEVYAVKVLKKDVILQDDDVDCTMTEKRILALARKHPYLTQLYCCFQTKDRLFFVMEYVNGGDLMFQIQRSRKFDEPRSRFYAAEVTSALMFLHQHGVIYRDLKLDNILLDAEGHCKLADFGMCKEGILNGVTTTTFCGTPDYIAPEILQELEYGPSVDWWALGVLMYEMMAGQPPFEADNEDDLFESILHDDVLYPVWLSKEAVSILKAFMTKNPHKRLGCVASQNGEDAIKQHPFFKEIDWVLLEQKKIKPPFKPRIKTKRDVNNFDQDFTREEPVLTLVDEAIVKQINQEEFKGFSYFGEDLMP
- % Activity ([2]; No Lipid Activators): 59%
- Specific Activity ([2]; No Lipid Activators): 743
- % Activity ([2]; PS/DAG): 100%
- Specific Activity ([2]; PS/DAG): 1250
